In the RNAGym collection of RNA variant scans (doi:10.7554/elife.80360):

B1: HDV Ribozyme (parent)
chain: GGCCGGCAUGGUCCCAGCCUCCUCGCUGGCGCCGGCUGGGCAACAUUCCGAGGGGACCGUCCCCUCGGUAAUGGCGAAUGGGACCCA

Variants of: B1
Experiment: self-cleavage, relative activity (ratio to wild type); higher = more cleavage; co-transcriptional
In the case of C21G G82C, the self-cleavage is reported as 0.0437. C21G G82U gave a self-cleavage of 0.106. With U23G C26G the self-cleavage was 0.831. U23C A87G showed a self-cleavage of 0.855. U23A C75U showed a self-cleavage of 0.346. Variant U23G G52C has a self-cleavage of 0.807. C22A U27A gave a self-cleavage of 0.0573. In the case of C22A U27C, the self-cleavage is reported as 0.317. C22G C24G showed a self-cleavage of 0.0339. C22G C24A showed a self-cleavage of 0.0396. C22G A56G showed a self-cleavage of 0.0875. For C21U U47A, the self-cleavage was 0.363. For C21U U47G, the self-cleavage was 0.185. For U23A C64A, the self-cleavage was 0.814. For C22A U60A, the self-cleavage was 0.326. In the case of C22A G67U, the self-cleavage is reported as 0.259. C22A G74A gave a self-cleavage of 0.0744. With C22A C33A the self-cleavage was 0.0314. C22A C33U gave a self-cleavage of 0.191. Variant U23G G39A has a self-cleavage of 0.17. With C22A C26U the self-cleavage was 0.578. In the case of C22A G52C, the self-cleavage is reported as 0.305. Work on U23C G68C yielded a self-cleavage of 0.727. In the case of C22A G53U, the self-cleavage is reported as 0.376. U23C G67A gave a self-cleavage of 0.927. C21U A51C showed a self-cleavage of 0.332. Variant C21U A51G has a self-cleavage of 0.228. For C21U A51U, the self-cleavage was 0.308. For U23A C63U, the self-cleavage was 0.96. For C22G U47G, the self-cleavage was 0.0791. U23A C66G showed a self-cleavage of 0.787. In the case of U23A G40U, the self-cleavage is reported as 0.769. C22A G25C showed a self-cleavage of 0. In the case of U23A U60C, the self-cleavage is reported as 1.16. In the case of C22U A83C, the self-cleavage is reported as 0.298. In the case of C21U C85G, the self-cleavage is reported as 0.358. U23C G74U showed a self-cleavage of 0.554. Variant U23C G34A has a self-cleavage of 0.0898. With C21U C36U the self-cleavage was 0.218. U23A C86A showed a self-cleavage of 1.21. C22G C61A showed a self-cleavage of 0.145. Work on C22U A87U yielded a self-cleavage of 0.644. In the case of C22G U79G, the self-cleavage is reported as 0.0665. With C22G U79C the self-cleavage was 0.105. U23C C26G showed a self-cleavage of 1.05. For C22U G31A, the self-cleavage was 0.22. Variant C21U G54C has a self-cleavage of 0.292. Variant C21G U47A has a self-cleavage of 0.0773. Work on U23G C33A yielded a self-cleavage of 0. Variant C21G U27G has a self-cleavage of 0. With U23C G31U the self-cleavage was 0.151. For U23C G31A, the self-cleavage was 0.266. C22G G59C gave a self-cleavage of 0.151. C22G C66A gave a self-cleavage of 0.0692. Variant C22U G39U has a self-cleavage of 0.163. With C22U G39C the self-cleavage was 0.115. C22U A42G gave a self-cleavage of 0.0755. C22U G74C gave a self-cleavage of 0.157. Variant U23C G28A has a self-cleavage of 0.0396. With C21U A45C the self-cleavage was 0.0256. For C21U A45G, the self-cleavage was 0.291. Variant C22G C75G has a self-cleavage of 0.181. C22G C75A gave a self-cleavage of 0. In the case of U23G C49G, the self-cleavage is reported as 0.346. With C22A A51G the self-cleavage was 0.457. For U23A C36U, the self-cleavage was 0.671. Work on U23G G40U yielded a self-cleavage of 0.431. Variant C21U G40C has a self-cleavage of 0.166. With C22G C64U the self-cleavage was 0.0536. For U23C G80A, the self-cleavage was 0.394. For U23C G80U, the self-cleavage was 0.16. In the case of U23C G80C, the self-cleavage is reported as 0.188. Variant U23A G35A has a self-cleavage of 0.864. C21U C57U gave a self-cleavage of 0.18. U23C U72C showed a self-cleavage of 0.665. Work on C22U G52A yielded a self-cleavage of 0.709. Work on C22A C62G yielded a self-cleavage of 0.212. In the case of U23A C85U, the self-cleavage is reported as 0.98. U23A A56U gave a self-cleavage of 1.08. With C22U U27A the self-cleavage was 0.227. For C22U U27C, the self-cleavage was 0.312. In the case of C22G C26U, the self-cleavage is reported as 0.208. With C22G C26G the self-cleavage was 0. Variant C22G G39A has a self-cleavage of 0.0817. U23G G25U gave a self-cleavage of 0.0594. In the case of U23G C36G, the self-cleavage is reported as 0.252. U23G C36U gave a self-cleavage of 0.386. For U23A U69G, the self-cleavage was 0.911. For C22A C85U, the self-cleavage was 0.345. Variant C21G U65A has a self-cleavage of 0.0536. C22U G53C showed a self-cleavage of 0.63. In the case of C21U G73A, the self-cleavage is reported as 0.0955. In the case of C22U C84A, the self-cleavage is reported as 0.408. For C22U U46G, the self-cleavage was 0.192. C22G G82C showed a self-cleavage of 0.0378. C22A A87G gave a self-cleavage of 0.33. U23A C30G showed a self-cleavage of 0. For U23A U79G, the self-cleavage was 0.665. Work on C21U A42U yielded a self-cleavage of 0.0845. In the case of U23G C75G, the self-cleavage is reported as 0.111. Variant U23G C75A has a self-cleavage of 0. Variant C22G C49U has a self-cleavage of 0.0639. U23C C75G showed a self-cleavage of 0.148. With C21U C24G the self-cleavage was 0.0545. With C21U C24A the self-cleavage was 0.0997. U23C G29C showed a self-cleavage of 0.0475. For C22U C66U, the self-cleavage was 0.604. Variant C22U C66G has a self-cleavage of 0.814. U23C C41G showed a self-cleavage of 0.201. U23A A71C showed a self-cleavage of 0.712. For U23G C61G, the self-cleavage was 0.628. For U23G C48U, the self-cleavage was 0.731. U23G C48G showed a self-cleavage of 0.361. C22G C86U gave a self-cleavage of 0.0923. C22G C86A gave a self-cleavage of 0.106. In the case of U23G G67U, the self-cleavage is reported as 0.789. In the case of C21G U79G, the self-cleavage is reported as 0.0554. For C21U U72C, the self-cleavage was 0.284. For C22G G35U, the self-cleavage was 0.102. For C22G G35A, the self-cleavage was 0.0615. C22U A56G showed a self-cleavage of 0.895. C22G G80C showed a self-cleavage of 0.136. Work on C21U U65C yielded a self-cleavage of 0.198. With C21U U65G the self-cleavage was 0.0852. Variant U23G C44G has a self-cleavage of 0.277. C21U U37A gave a self-cleavage of 0.157. For U23G C58U, the self-cleavage was 0.582. Variant U23G C58G has a self-cleavage of 0.72. U23A U27C showed a self-cleavage of 0.575. In the case of C22U A78G, the self-cleavage is reported as 0.314. With C22U A78C the self-cleavage was 0.126. For C22A G73A, the self-cleavage was 0.0723. Work on C22A G73C yielded a self-cleavage of 0.0482. In the case of C22G A70C, the self-cleavage is reported as 0.0489. For U23C G81C, the self-cleavage was 0.249. With C22U C75G the self-cleavage was 0.208. Variant U23C U60G has a self-cleavage of 0.798. With U23G C62G the self-cleavage was 0.453. In the case of C22G G31C, the self-cleavage is reported as 0.0852. C21G U60G showed a self-cleavage of 0. In the case of C21G U46A, the self-cleavage is reported as 0.147. Variant C22A G55C has a self-cleavage of 0.262. For C22U C32A, the self-cleavage was 0.117. For C22U U79C, the self-cleavage was 0.198. C22U U79G showed a self-cleavage of 0.178. With C21U G39C the self-cleavage was 0.201. For U23C U69G, the self-cleavage was 0.739. U23C U69A gave a self-cleavage of 0.8. C22U C33U gave a self-cleavage of 0.533. With C22A A70U the self-cleavage was 0.222. For U23A A83C, the self-cleavage was 0.508. In the case of C21U G34U, the self-cleavage is reported as 0.0354. For C22A G39A, the self-cleavage was 0.0528. Work on C22A G39U yielded a self-cleavage of 0.166. Variant C22A G39C has a self-cleavage of 0.0437. With C21U C62U the self-cleavage was 0.317. Work on U23C C61A yielded a self-cleavage of 0.982. For C21U C41U, the self-cleavage was 0.267. In the case of C21U C41A, the self-cleavage is reported as 0.339. For C22A A78G, the self-cleavage was 0.0369. Work on C22A A78U yielded a self-cleavage of 0. With C22U C64A the self-cleavage was 0.786. In the case of C22G G34A, the self-cleavage is reported as 0.0339. Variant C22G G34U has a self-cleavage of 0.0627. Work on U23G G76C yielded a self-cleavage of 0.684. U23A G25A showed a self-cleavage of 0.277. Variant C22A A42U has a self-cleavage of 0.111.
